{
  "source": "paper PMC10767040",
  "about": "“Helical reconstruction of VP39 reveals principles for baculovirus nucleocapsid assembly” (Nature Communications, 2024)",
  "proteins": {"B1": {"name": "Autographa californica multiple nucleopolyhedrovirus (AcMNPV) major capsid protein VP39 (natural protein)", "chain": "MALVPVGMAPRQMRVNRCIFASIVSFDACITYKSPCSPDAYHDDGWFICNNHLIKRFKMSKMVLPIFDEDDNQFKMTIARHLVGNKERGIKRILIPSATNYQDVFNLNSMMQAEQLIFHLIYNNENAVNTICDNLKYTEGFTSNTQRVIHSVYATTKSILDTTNPNTFCSRVSRDELRFFDVTNARALRGGAGDQLFNNYSGFLQNLIRRAVAPEYLQIDTEELRFRNCATCIIDETGLVASVPDGPELYNPIRSSDIMRSQPNRLQIRNVLKFEGDTRELDRTLSGYEEYPTYVPLFLGYQIINSENNFLRNDFIPRANPNATLGGGAVAGPAPGVAGEAGGGIAV", "notes": "VP39, the 39 kDa major capsid protein of Autographa californica multiple nucleopolyhedrovirus, as assembled in the nucleocapsid; the first 11 residues of the N terminus and the last 27 residues of the C terminus are unresolved in the model; The virus's own VP39 from the bacmid backbone; the decahistidine or FLAG tags were on unrelated human constructs, not on VP39; In the sample VP39 stood as …"}},
  "molecular_target": "the molecule itself",
  "experiment": "cryo-EM structure; helical reconstruction (D14, rise 43.86 Å, twist -7.16°) of AcMNPV nucleocapsids purified from Sf9 cells, on graphene-coated grids; local reconstruction of four adjacent VP39 dimers",
  "data": [
    {"protein": "B1", "values": [
      {"measurement": "stoichiometry N", "result": 2}
    ]}
  ]
}
